Results taken from IntAct's records for PubMed 18239685.

Biological target: taxb1_human TAX1BP1 (UniProt Q86VP1)

For “Polyubiquitin-C (Homo sapiens) (from UniProt P0CG48) I44A”, the “effect of a mutation on the interaction” value was “decreasing interaction”.
